{
  "source": "patent US20070107085",
  "molecular_target": "T1, Gly-Asp-Asp-Asp-Asp-Lys-β-naphthylamide",
  "T1 chain": "GDDDDK",
  "data": [
    {"protein": "CBM-enterokinase produced transiently in lettuce and purified on cellulose (protein) MVATAKYGTPVIDGEIDEIWNTTEEIETKAVAMGSLDKNATAKVRVLWDENYLYVLAIVKDPVLNKDNSNPWEQDSVEIFIDENNHKTGYYEDDDAQFRVNYMNEQTFGTGGSPARFKTAVKLIEGGYIVEAAIKWKTIKPTPNTVIGFNIQVNDANEKGQRVGIISWSDPTNNSWRDPSKFGNLRLIK", "values": [
      {"measurement": "Enterokinase activity", "result": "442,7 cps/min/µg"}
    ]}
  ]
}
